Data on 1 substance can be found in paper PMC10267887.

Values joined by “and” are separate entries in the source; they are usually repeats but may differ in a detail not shown here. Equal entries are not always repeated. Where only a bound is given, the exact number is not on record here.

Assay [1] has as its target fibroblast growth factor 2 fused to GFP (FGF2-GFP), His-tagged (UniProt P09038). Briefly: dual(+1)-FCS (brightness analysis by fluorescence correlation spectroscopy); 200 nM FGF2-GFP on immobilised GUVs of plasma-membrane-like lipids with 2 mol % PI(4,5)P2, HEPES buffer (25 mM HEPES, 150 mM NaCl, pH 7.4); average oligomeric state per GUV; FINAL state (t >= 240 min), permeabilized (leaky) GUVs.

Assay [2] shares this target. Put plainly: dual(+1)-FCS (brightness analysis by fluorescence correlation spectroscopy); as a1; FINAL state (t >= 240 min), (leaky to leaky) GUVs only.
Assay [3] has the same target. Briefly: dual(+1)-FCS (brightness analysis by fluorescence correlation spectroscopy); as a1; INITIAL state (t = 60-120 min), leaky, (leaky to leaky) GUVs.

What is called stoichiometry N is a count of units in the complex or per binding partner.

With “fibroblast growth factor 2 fused to GFP (FGF2-GFP), His-tagged (from UniProt P09038 1-288) (natural protein)”, the stoichiometry N in assay [1] was 2 and 6; in assay [2], < 10 m.u. and 4.21 m.u; in assay [3], 2 and 6.
